The target in assay [1] is human serum proteins. Kind of assay: cell-based or functional assay.
Assay [2] addresses D38. Kind of assay: RP-HPLC temperature profiling 5-77 C, pH 2, self-association (dimerization/oligomerization) relative to random coil control RC.
The target in assay [3] is D37. The assay is described as above.
The target in assay [4] is D37. Kind of assay: RP-HPLC temperature profiling (0.25% B/min gradient), control AMP, self-association relative to RC.
Assay [5] deals with D106 (D88K3DprK7DprK14DprK15DprK22DprK26Dpr). Kind of assay: RP-HPLC temperature profiling (0.25% B/min gradient), Mix 4, self-association relative to RC.
Assay [6] deals with D85 (D84K3OrnK7OrnK11OrnK18OrnK22OrnK26Orn). Kind of assay: RP-HPLC temperature profiling (0.25% B/min gradient), Mix 1, self-association relative to RC.
For assay [7], the target named is D101 (D33(A1K)K26S). Kind of assay: RP-HPLC temperature profiling (0.25% B/min gradient), Mix 2, self-association relative to RC.
Assay [8] has as its target D33 (D37(A13K/A16K)). Kind of assay: RP-HPLC temperature profiling 5-77 C, pH 2, self-association (dimerization/oligomerization) relative to random coil control RC.
In assay [9] the target is D103 (D34(A1K)K26S). Kind of assay: RP-HPLC temperature profiling (0.25% B/min gradient), Mix 2, self-association relative to RC.
Assay [10] addresses D87 (D84K3ArgK7ArgK11ArgK18ArgK22ArgK26Arg). Kind of assay: RP-HPLC temperature profiling (0.25% B/min gradient), Mix 1, self-association relative to RC.
Assay [11] concerns the target D40. Kind of assay: RP-HPLC temperature profiling 5-77 C, pH 2, self-association (dimerization/oligomerization) relative to random coil control RC.
The target of assay [12] is D105 (D84K3DprK7DprK11DprK18DprK22DprK26Dpr). Kind of assay: RP-HPLC temperature profiling (0.25% B/min gradient), Mix 4, self-association relative to RC.
The target is the same in assay [13]. Kind of assay: RP-HPLC temperature profiling (0.25% B/min gradient), Mix 1, self-association relative to RC.
The target of assay [14] is D88 (D34(A1K)). Kind of assay: RP-HPLC temperature profiling (0.25% B/min gradient), Mix 2, self-association relative to RC.
Assay [15] has as its target D39. Kind of assay: RP-HPLC temperature profiling 5-77 C, pH 2, self-association (dimerization/oligomerization) relative to random coil control RC.

Non-standard residues stand in square brackets, D forms with d. No end group written: not given here. A value given as a limit tells only on which side of the number the result lay.

B1: D38 (peptide)
peptide: [dA][dL][dK][dS][dL][dL][dK][dT][dL][dS][dA][dA][dA][dK][dK][dA][dL][dA][dT][dL][dL][dK][dA][dL][dS][dK]-NH2
modifications: N-terminus assumed
SMILES: CC(C)C[C@@H](NC(=O)[C@@H](C)N)C(=O)N[C@H](CCCCN)C(=O)N[C@H](CO)C(=O)N[C@H](CC(C)C)C(=O)N[C@H](CC(C)C)C(=O)N[C@H](CCCCN)C(=O)N[C@@H](C(=O)N[C@H](CC(C)C)C(=O)N[C@H](CO)C(=O)N[C@H](C)C(=O)N[C@H](C)C(=O)N[C@H](C)C(=O)N[C@H](CCCCN)C(=O)N[C@H](CCCCN)C(=O)N[C@H](C)C(=O)N[C@H](CC(C)C)C(=O)N[C@H](C)C(=O)N[C@@H](C(=O)N[C@H](CC(C)C)C(=O)N[C@H](CC(C)C)C(=O)N[C@H](CCCCN)C(=O)N[C@H](C)C(=O)N[C@H](CC(C)C)C(=O)N[C@H](CO)C(=O)N[C@H](CCCCN)C(N)=O)[C@H](C)O)[C@H](C)O
In assay [1], B1 had an MIC against A. baumannii strain 649 in 25% human serum (no serum: 0.7) of over 92.8 µM. The PA (self-association parameter) in assay [2] worked out at 19.5 min.

B2: D37 (peptide)
peptide: [dA][dL][dK][dS][dL][dL][dK][dT][dL][dS][dK][dA][dA][dA][dA][dA][dL][dK][dT][dL][dL][dK][dA][dL][dS][dK]-NH2
modifications: N-terminus assumed
SMILES: CC(C)C[C@@H](NC(=O)[C@@H](C)N)C(=O)N[C@H](CCCCN)C(=O)N[C@H](CO)C(=O)N[C@H](CC(C)C)C(=O)N[C@H](CC(C)C)C(=O)N[C@H](CCCCN)C(=O)N[C@@H](C(=O)N[C@H](CC(C)C)C(=O)N[C@H](CO)C(=O)N[C@H](CCCCN)C(=O)N[C@H](C)C(=O)N[C@H](C)C(=O)N[C@H](C)C(=O)N[C@H](C)C(=O)N[C@H](C)C(=O)N[C@H](CC(C)C)C(=O)N[C@H](CCCCN)C(=O)N[C@@H](C(=O)N[C@H](CC(C)C)C(=O)N[C@H](CC(C)C)C(=O)N[C@H](CCCCN)C(=O)N[C@H](C)C(=O)N[C@H](CC(C)C)C(=O)N[C@H](CO)C(=O)N[C@H](CCCCN)C(N)=O)[C@H](C)O)[C@H](C)O
With B2, the MIC against A. baumannii strain 649 in 25% human serum (no serum: 2.9) in [1] is over 92.8 µM. Moreover, the PA (self-association parameter) stood at 18.5 min in [3] and 37 min in assay [4].

B3: D106 (D88K3DprK7DprK14DprK15DprK22DprK26Dpr) (peptide)
peptide: Ac-KLXSLLXTLSAAKXXKLATLLXALSX-NH2
modifications: not fully specified (some residues); printed as Ac-KL(Dpr)SLL(Dpr)TLSAAK(Dpr)(Dpr)KLATLL(Dpr)ALs(Dpr)-amide
Consider B3, for which the PA (self-association parameter) in [5] is 2.5 min.

B4: D85 (D84K3OrnK7OrnK11OrnK18OrnK22OrnK26Orn) (peptide)
peptide: Ac-KLXSLLXTLSXAKAAKLXTLLXALSX-NH2
modifications: not fully specified (some residues); printed as Ac-KL(Orn)SLL(Orn)TLS(Orn)AKAAKL(Orn)TLL(Orn)ALS(Orn)-amide
B4: the PA (self-association parameter) in assay [6] is 2.9 min.

Regarding Ac-KLKSLLKTLSKAKAAKLKTLLKALSS-NH2 (not fully specified; also: D-enantiomeric residues, extent not given here) [D101 (D33(A1K)K26S)], in assay [7], the PA (self-association parameter) came to 7.2 min.

B5: D33 (D37(A13K/A16K)) (peptide)
peptide: [dA][dL][dK][dS][dL][dL][dK][dT][dL][dS][dK][dA][dK][dA][dA][dK][dL][dK][dT][dL][dL][dK][dA][dL][dS][dK]-NH2
modifications: N-terminus assumed
SMILES: CC(C)C[C@@H](NC(=O)[C@@H](C)N)C(=O)N[C@H](CCCCN)C(=O)N[C@H](CO)C(=O)N[C@H](CC(C)C)C(=O)N[C@H](CC(C)C)C(=O)N[C@H](CCCCN)C(=O)N[C@@H](C(=O)N[C@H](CC(C)C)C(=O)N[C@H](CO)C(=O)N[C@H](CCCCN)C(=O)N[C@H](C)C(=O)N[C@H](CCCCN)C(=O)N[C@H](C)C(=O)N[C@H](C)C(=O)N[C@H](CCCCN)C(=O)N[C@H](CC(C)C)C(=O)N[C@H](CCCCN)C(=O)N[C@@H](C(=O)N[C@H](CC(C)C)C(=O)N[C@H](CC(C)C)C(=O)N[C@H](CCCCN)C(=O)N[C@H](C)C(=O)N[C@H](CC(C)C)C(=O)N[C@H](CO)C(=O)N[C@H](CCCCN)C(N)=O)[C@H](C)O)[C@H](C)O
For B5, the MIC against A. baumannii strain 649 in 25% human serum (no serum: 0.1) in assay [1] was determined as 0.7 µM. Further, the PA (self-association parameter) in assay [8] was determined as 5.3 min. Take Ac-KLKSLLKTLSAAKKKKLATLLKALSS-NH2 (not fully specified; also: D-enantiomeric residues, extent not given here) [D103 (D34(A1K)K26S)]: in assay [9], the PA (self-association parameter) came out at 7.2 min.

B6: D87 (D84K3ArgK7ArgK11ArgK18ArgK22ArgK26Arg) (peptide)
peptide: Ac-KLRSLLRTLSRAKAAKLRTLLRALSR-NH2
modifications: not fully specified; printed as Ac-KL(Arg)SLL(Arg)TLS(Arg)AKAAKL(Arg)TLL(Arg)ALs(Arg)-amide; also: D-enantiomeric residues, extent not given here
With B6, the PA (self-association parameter) in [10] amounted to 3.4 min.

B7: D40 (peptide)
peptide: [dA][dL][dA][dS][dL][dL][dK][dT][dL][dS][dK][dA][dA][dK][dK][dA][dL][dK][dT][dL][dL][dK][dA][dL][dS][dA]-NH2
modifications: N-terminus assumed
SMILES: CC(C)C[C@@H](NC(=O)[C@@H](C)N)C(=O)N[C@H](C)C(=O)N[C@H](CO)C(=O)N[C@H](CC(C)C)C(=O)N[C@H](CC(C)C)C(=O)N[C@H](CCCCN)C(=O)N[C@@H](C(=O)N[C@H](CC(C)C)C(=O)N[C@H](CO)C(=O)N[C@H](CCCCN)C(=O)N[C@H](C)C(=O)N[C@H](C)C(=O)N[C@H](CCCCN)C(=O)N[C@H](CCCCN)C(=O)N[C@H](C)C(=O)N[C@H](CC(C)C)C(=O)N[C@H](CCCCN)C(=O)N[C@@H](C(=O)N[C@H](CC(C)C)C(=O)N[C@H](CC(C)C)C(=O)N[C@H](CCCCN)C(=O)N[C@H](C)C(=O)N[C@H](CC(C)C)C(=O)N[C@H](CO)C(=O)N[C@H](C)C(N)=O)[C@H](C)O)[C@H](C)O
Turning to B7, the MIC against A. baumannii strain 649 in 25% human serum (no serum: 2.9) in assay [1] was over 92.8 µM. The PA (self-association parameter) in [11] was 18.7 min.

B8: D105 (D84K3DprK7DprK11DprK18DprK22DprK26Dpr) (peptide)
peptide: Ac-KLXSLLXTLSXAKAAKLXTLLXALSX-NH2
modifications: not fully specified (some residues); printed as Ac-KL(Dpr)SLL(Dpr)TLS(Dpr)AKAAKL(Dpr)TLL(Dpr)ALS(Dpr)-amide
Consider B8, for which the PA (self-association parameter) in assay [12] and in assay [13] was 2.8 min in each case.

B9: D88 (D34(A1K)) (peptide)
peptide: Ac-KLKSLLKTLSAAKKKKLATLLKALSK-NH2
modifications: not fully specified; printed as Ac-KL(Lys)SLL(Lys)TLSAAK(Lys)(Lys)KLATLL(Lys)ALS(Lys)-amide; also: D-enantiomeric residues, extent not given here
B9 displayed a PA (self-association parameter) in [14] of 6.9 min.

B10: D39 (peptide)
peptide: [dA][dL][dK][dS][dL][dL][dA][dT][dL][dS][dK][dA][dA][dK][dK][dA][dL][dK][dT][dL][dL][dA][dA][dL][dS][dK]-NH2
modifications: N-terminus assumed
SMILES: CC(C)C[C@@H](NC(=O)[C@@H](C)N)C(=O)N[C@H](CCCCN)C(=O)N[C@H](CO)C(=O)N[C@H](CC(C)C)C(=O)N[C@H](CC(C)C)C(=O)N[C@H](C)C(=O)N[C@@H](C(=O)N[C@H](CC(C)C)C(=O)N[C@H](CO)C(=O)N[C@H](CCCCN)C(=O)N[C@H](C)C(=O)N[C@H](C)C(=O)N[C@H](CCCCN)C(=O)N[C@H](CCCCN)C(=O)N[C@H](C)C(=O)N[C@H](CC(C)C)C(=O)N[C@H](CCCCN)C(=O)N[C@@H](C(=O)N[C@H](CC(C)C)C(=O)N[C@H](CC(C)C)C(=O)N[C@H](C)C(=O)N[C@H](C)C(=O)N[C@H](CC(C)C)C(=O)N[C@H](CO)C(=O)N[C@H](CCCCN)C(N)=O)[C@H](C)O)[C@H](C)O
In [1], B10 yielded an MIC against A. baumannii strain 649 in 25% human serum (no serum: 1.4) of over 92.8 µM. The molecule further returned a PA (self-association parameter) in assay [15] of 18.5 min.

Values taken from patent US20200129634A1.
